Consider one substance from publication PMC8144435.

“And” between values parts separate entries of the source, which are not always exact repeats. Equal values may be shown once.

The assay addresses Mayaro virus (MAYV) capsid (C) protein, strain IQT4235 (Mayaro virus (strain IQT4235)). Description: cryo-EM structure; purified mature infectious MAYV virions (5x10^10 PFU/mL, from Vero CCL81 cells) vitrified on Quantifoil R2/2 grids; 300 kV Titan Krios, single particle analysis with icosahedral symmetry, global resolution 4.4 Å; atomic model from a homology model on CHIKV (PDB 6NK5) refined into the map.

Broadly, the stoichiometry N is a count of units in the complex or per binding partner.

Consider “Mayaro virus (MAYV) capsid (C) protein, strain IQT4235 (natural protein)”, for which the stoichiometry N is 6 and 5.
